Source: patent publication US10858396B2, “HER2 peptide regents and methods” (THE REGENTS OF THE UNIVERSITY OF MICHIGAN, priority 2015, dated 2020)
“Also recorded” adds a separate entry of the source. Ends that are not written are not given here.

Tests used:
[1] = target: T1, HER2 (Homo sapiens, UniProt P04626); experiment: Confocal microscopy of FITC-labeled candidate peptides binding to Flo1-HER2 and Q-hTERT (control) cells; type: cell-based; settings: FITC-labeled peptide 10 μM, Flo1-HER2 relative to Q-hTERT cells
Method: Flo-1-Her2 and Q-hTERT cells were seeded with ˜7,500 cells in 12-well plates with 1.5 mm thick glass cover slides, and grown to ˜70% confluence. The cells were gently washed with cold PBS before adding the peptide. 10 μM of FITC-labeled peptide was added to each well and incubated at 4° C. for 1 hour. After incubation, the cells were washed 3× with PBS, fixed in ice-cold 4% PFA for 10 min, and washed 1× with PBS. Subsequently, the cells were embedded on microscope slides with ProLong Gold reagent containing DAPI (Invitrogen), and the slides where analyzed with a Leica TCS SP5 confocal microscope using 63× oil immersion objective (Leica Microsystems, Leider Lane IL). The FITC-labeled peptides and anti-HER2 antibody were tested in quadruplicate.

[2] = target: T2, colonic adenomas that over express HER2 (Mus musculus, UniProt P70424); experiment: In vivo endoscopic NIR imaging of mouse colonic adenomas, topical peptide reagent; settings: CPC;Apc mice
T2 construct: validate over expression of HER2 in mouse colonic dysplasia; from tissue; host or cells: colonic adenomas / colon of CPC;Apc mice (in vivo, excised colon, fixed sections)
Method: Mouse imaging studies were performed with approval of the University of Michigan Committee on the Use and Care of Animals (UCUCA). The mice were housed in pathogen-free conditions and supplied water ad libitum under controlled conditions of humidity (50±10%), light (12/12 hour light/dark cycle) and temperature (25° C.). Anesthesia was induced and maintained via a nose cone with inhaled isoflurane mixed with oxygen at a concentration of 2-4% at a flow rate of ˜0.5 L/min. The colon was first rinsed with tap water to remove mucous and debris. White light illumination was used first to identify anatomic landmarks, including polyps, mucosal folds, colonic segment, and distance of endoscope tip from anus, to register the in vivo images with histology. […] During imaging, we recorded the 1) distance between the endoscope tip and the anus and 2) clockwise location of each region of high intensity. […]
White light and fluorescence videos were exported in avi format with 24 (RGB) and 8 (grayscale) bit digital resolution for the color and fluorescence images, respectively. […] On the fluorescence images, 3 regions of interest (ROI) with dimensions of 25×25 pixels were picked to represent a range of staining for normal and diseased tissues and averaged. The mean intensities within these ROI were determined to calculate the target to-background (T/B) ratio.

[3] = target: T3, ErbB2 (HER2) (Homo sapiens, UniProt P04626); experiment: Staining of FFPE human Barrett's esophagus specimens with peptide reagents; settings: excised human specimens, 5 μM, 10 min
T3 construct: specimens of human esophagus were obtained from an archived tissue bank; from tissue; host or cells: FFPE human esophagus (SQ, BE, LGD, HGD, EAC)
Method: Formalin-fixed, paraffin-embedded (FFPE) specimens of human esophagus were obtained from an archived tissue bank. 5 μm thick sections were cut, and mounted onto glass slides (Superfrost Plus, Fischer Scientific). The tissues were deparaffinized, and antigen retrieval was performed. The sections were blocked with protein serum for 15 min at room temperature followed by rinsing with PBS. The sections were then stained with either KSP*-Cy5.5 or RHP*-Cy5.5 at 5 μM concentration for 10 min at room temperature. The sections were then washed 3× for 3 min with PBS and further incubated with anti-HER2 antibody overnight at 4° C. Sections were washed 3× with PBST and mounted with Prolong Gold reagent containing DAPI (Invitrogen) using #1 cover glass ([…]).

[4] = target: T1, HER2; experiment: Confocal fluorescence microscopy of peptide reagent binding to HT29 and SW480 cells; type: cell-based; parameters: host or cells: HT29, SW480; settings: 5 μM, 30 min at 4° C.
Method: Cells were washed with PBS and incubated with 5 μM of KSP*-Cy5.5 and PPS*-Cy5.5 for 30 min at 4° C. The cells were then washed 3× in PBS, fixed with ice cold 4% paraformaldehyde (PFA) for 10 min, washed 1× with PBS, and then mounted on glass slides with ProLong Gold reagent containing DAPI (Invitrogen). Confocal fluorescence images were collected with Cy5.5, and DAPI filters (Leica Inverted SPSX Confocal Microscope System). For antibody staining, the cells were pre-fixed with cold methanol for 10 min at −20° C. and blocked with 2% BSA for 30 min at RT. Cells were incubated with 1:450 dilution of anti HER2 antibody overnight at 4° C. The cells were washed 3× with PBS and processed for secondary staining. Goat-anti rabbit Alexa-Fluor 488 (AF488) was added to the cells and incubated for 1 hour at RT. Cells were further washed 3× with PBS and mounted onto glass cover slips. Fluorescence intensities from 3 independent images were quantified using custom Matlab (Mathworks) software.

[5] = target: T4, HER2 over expressed by mouse colonic dysplasia (Mus musculus, UniProt P70424); experiment: Peptide reagent immunofluorescence on mouse colonic adenoma sections; settings: 2 μM, 10 min at RT, confocal microscopy
T4 construct: validate over expression of HER2 in mouse colonic dysplasia; from tissue; host or cells: colonic adenomas / colon of CPC;Apc mice (in vivo, excised colon, fixed sections)
Method: Specimens of mouse colonic adenoma were formalin fixed and processed, as described previously. Serial 5 μm sections were incubated with 2 μM of each peptide for 10 min at RT. The sections were washed 3× with PBS, and mounted with Prolong Gold reagent containing DAPI (Invitrogen). Adjacent sections were processed for histology (H&E).

[6] = test system: HER2-mediated signaling; experiment: Effect of HER2 peptide on cell signaling (western blot); type: cell-based, human; settings: 48 hours
Method: SKBR3 cells are commonly used to evaluate HER2 signaling, and were grown in 6 well plates to ˜60% confluence. Unlabeled KSP* peptide was added to separate wells at concentrations of 5 and 100 μM. Lapatinib, a tyrosine kinase inhibitor, was used as a positive control and was added in concentrations of 1, 25, 100 and 1000 nM. Lapatinib stock solution starting at 1 mg/mL was diluted in DMSO and PBS. 1% DMSO treated cells and untreated cells were used as control. After 48 hours following treatment, the cells were harvested for western blot analysis. Anti-HER2 antibody (Cell Signaling, #2165), phospho-HER2/ErbB2 (Tyr1248) antibody (Cell Signaling, #2247), anti-AKT (Cell Signaling, #4691P), anti-ERK1/2 (Cell Signaling, #4695P), anti-phospho-AKT (pS473), (Cell Signaling, #4060P), anti-phospho-ERK1/2 (Cell Signaling, #4370P) and anti-tubulin (Invitrogen, #32-2600) were used per manufacturer's instructions.

[7] = target: T1, HER2; experiment: Competition for peptide reagent binding with unlabeled KSP* on HT29 cells; parameters: host or cells: HT29; settings: unlabeled KSP* 0, 10, 25, 50, 100 μM, then 2 μM KSP*-Cy5.5
Method: Specific binding of KSP*-Cy5.5 to HT29 cells was validated on competitive inhibition with unlabeled KSP* peptide reagent. ˜7500 HT29 cells were grown to ˜70% confluence on cover slips in triplicate. Unlabeled KSP* peptide at 0, 10, 25, 50, and 100 μM were added and incubated with the cells for 30 min at 4° C. The cells were washed 3× with PBS, and further incubated with 2 μM of KSP*-Cy5.5 for another 30 min at 4° C. The cells were washed 3× with PBS and fixed with 4% PFA for 10 min. The cells were washed with PBS and mounted with ProLong Gold reagent containing DAPI (Invitrogen). Confocal fluorescence images were collected at each concentration, and intensities from 3 independent images were quantified using custom Matlab (Mathworks) software.

T2 sequence (P70424 23-1256): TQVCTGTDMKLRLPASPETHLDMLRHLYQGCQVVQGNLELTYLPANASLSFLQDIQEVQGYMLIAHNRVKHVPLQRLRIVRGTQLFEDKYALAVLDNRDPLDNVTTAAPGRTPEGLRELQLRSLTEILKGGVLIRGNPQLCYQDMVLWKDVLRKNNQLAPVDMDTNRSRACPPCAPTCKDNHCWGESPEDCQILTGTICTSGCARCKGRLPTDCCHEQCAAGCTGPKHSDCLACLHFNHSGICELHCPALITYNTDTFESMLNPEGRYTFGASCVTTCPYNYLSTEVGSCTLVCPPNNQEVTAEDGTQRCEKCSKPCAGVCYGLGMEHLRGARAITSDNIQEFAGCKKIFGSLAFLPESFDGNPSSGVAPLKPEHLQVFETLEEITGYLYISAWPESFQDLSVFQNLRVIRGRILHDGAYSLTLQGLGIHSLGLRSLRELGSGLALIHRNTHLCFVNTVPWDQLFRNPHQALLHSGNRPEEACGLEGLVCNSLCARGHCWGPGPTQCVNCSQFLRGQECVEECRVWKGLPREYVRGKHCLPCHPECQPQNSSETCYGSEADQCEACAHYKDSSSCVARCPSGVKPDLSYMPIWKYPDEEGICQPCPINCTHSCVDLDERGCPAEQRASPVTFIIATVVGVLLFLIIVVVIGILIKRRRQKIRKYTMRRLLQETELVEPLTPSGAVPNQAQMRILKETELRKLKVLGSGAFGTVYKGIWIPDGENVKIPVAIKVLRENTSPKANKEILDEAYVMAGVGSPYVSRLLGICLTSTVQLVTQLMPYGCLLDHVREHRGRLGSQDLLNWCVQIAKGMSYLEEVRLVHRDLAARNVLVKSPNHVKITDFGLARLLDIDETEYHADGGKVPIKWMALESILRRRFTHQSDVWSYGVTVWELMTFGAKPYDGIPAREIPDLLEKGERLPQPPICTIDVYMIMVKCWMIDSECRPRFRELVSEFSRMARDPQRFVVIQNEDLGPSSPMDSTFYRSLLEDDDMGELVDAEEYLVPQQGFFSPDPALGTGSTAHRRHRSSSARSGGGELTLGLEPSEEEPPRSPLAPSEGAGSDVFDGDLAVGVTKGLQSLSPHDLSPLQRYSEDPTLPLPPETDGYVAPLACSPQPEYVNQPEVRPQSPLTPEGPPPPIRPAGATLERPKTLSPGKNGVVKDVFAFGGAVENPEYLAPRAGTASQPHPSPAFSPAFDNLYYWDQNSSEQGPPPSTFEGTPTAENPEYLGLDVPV
T4 sequence (P70424 23-1256): as above

## KSPNPRF (also: FITC label, site not given here) [HER2-specific peptide; FITC-labeled for candidate selection]
[1]
  mean fluorescence intensity compared with other peptide candidates: highest mean fluorescence intensity

## PPS*-Cy5.5: scrambled control peptide PPSNFKR linked to Cy5.5 via GGGSK (PPSNFKRGGGSK-{Cy5.5-NH2}; also: Cy5.5 attached via GGGSK linker, end not given here)
[2]; topical 100 μM, 5 min incubation, adenomas
  mean (±std) T/B ratio: 1.46±0.25
[2]; topical administration
  NIR fluorescence signal from polyp / flat adenoma: Minimal signal; also recorded: significantly reduced signal
[3]
  staining with cancer progression in Barrett's esophagus (SQ, BE, LGD, HGD, EAC): Minimal staining
[4]
  binding to cell surface on confocal microscopy: minimal binding
[5]
  staining of normal mouse colonic mucosa: Minimal staining

## CS(=O)(=O)CCNCc1ccc(-c2ccc3ncnc(Nc4ccc(OCc5cccc(F)c5)c(Cl)c4)c3c2)o1 [lapatinib]
[6]; 1 to 1000 nM
  phosphorylation of HER2 (p-HER2), AKT (p-AKT) and ERK (p-ERK): reduced expression; also recorded: dose dependent reduction

## KSP*: unlabeled KSP* peptide (KSPNPRF without Cy5.5 fluorophore)
[7]
  fluorescence intensity of KSP*-Cy5.5 on competition with unlabeled peptide: decrease significantly in a concentration dependent manner
[6]; 5 and 100 μM
  phosphorylation of HER2 (p-HER2), AKT (p-AKT) and ERK (p-ERK): no change; also recorded: no reduction
